{
  "source": "patent US10925971B2",
  "about": "“Methods of treating PRLR positive breast cancer” (Regeneron Pharmaceuticals, Inc., priority 2016, dated 2021)",
  "molecules": {"B1": {"name": "H1H6958N2-DM1: anti-PRLR antibody H1H6958N2 conjugated to the maytansinoid DM1 through an SMCC linker (conjugate)", "VH": "QVQLVESGGGVVQPGRSLRLSCGASGFTFRNYGMQWVRQGPGKGLEWVTLISFDGNDKYYADSVKGRFTISRDNSKNTLFLQMNSLRTEDTAVYYCARGGDFDYWGQGTLVTVSS", "VL": "DIQMTQSPSSLSASVGDRVTITCRASQDIRKDLGWYQQKPGKAPKRLIYAASSLHSGVPSRFSGSGSGTEFTLTISSLQPEDFATYYCLQHNSYPMYTFGQGTKLEIK"}},
  "key": {"[1]": {"test_system": "MCF7 (MCF7/ATCC) cells", "experiment": "In vitro cell viability (cell kill) assay, nuclear counts", "format": "cell-based, human", "details": "MCF7 cells, approximately 3000 copies of PRLR per cell", "method_in_brief": "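Anti-PRLR–DM1 ADCs (non-cleavable SMCC linker) or free DM1-SMe, 500 nM to 5 pM for 3 days on parental or hPRLR-overexpressing lines. HEK293: CCK8 OD450; MCF7: Hoechst nuclear counts by imaging.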"}, "[2]": {"test_system": "TM00107 PDX tumors", "experiment": "TM00107 patient derived xenograft (PDX) breast cancer model, tumor volume", "format": "in vivo, NOD SCID gamma (NSG) mice", "procedure": "Efficacy of H1H6958N2-DM1 was also assessed in a patient derived xenograft (PDX) model of breast cancer that may better represent the response in patients. NOD SCID gamma (NSG) mice bearing tumor fragments of the TM00107 PDX breast cancer tumor were sourced from The Jackson Laboratories. The TM00107 PDX model was derived from an ER+/−/PR−/HER2− metastatic breast adenocarcinoma. PRLR expression was confirmed by microarray analysis and immunohistochemistry on tumor sample slides provided by The Jackson Laboratory (data not shown). When tumors were an average volume of ˜400-600 mm^3 (21 days post implantation), mice were randomized into treatment groups (n=7 mice/group) and were administered H1H6958N2-DM1, control ADC, or vehicle control by intravenous injection once weekly for a total of 4 weeks. A separate treatment group was administered paclitaxel by intravenous injection every 4 days for a total of 4 doses."}, "[3]": {"test_system": "T47D cells", "experiment": "In vitro cell viability (cell kill) assay, CCK8", "format": "cell-based, human", "details": "T47D cells (PRLR 12× above background), 3 days; read-out: IC50, growth inhibition / cell viability", "method_in_brief": "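T47D cells grown overnight, then exposed for 3 days to anti-PRLR-DM1 ADCs (SMCC non-cleavable linker) or DM1-SMe at 500 nM to 5 pM.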"}, "[4]": {"test_system": "PC3 cells", "experiment": "In vitro cell viability (cell kill) assay, CCK8", "format": "cell-based, human", "details": "Table 18", "method_in_brief": "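Three-day exposure to DM1-conjugated anti-PRLR antibodies or DM1-SMe, 500 nM down to 5 pM, in cells engineered to express human PRLR. Surviving cells are quantified by CCK8 absorbance or by imaged Hoechst nuclear counts, relative to untreated wells.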"}, "[5]": {"test_system": "HEK293 (293) cells", "experiment": "In vitro cell viability (cell kill) assay, CCK8", "format": "cell-based, human", "method_in_brief": "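Readout: CCK8 absorbance at 450 nm (293, PC3) or Hoechst-stained nuclear counts after formaldehyde fixation (MCF7). hPRLR-expressing lines, seeded overnight, got DM1 ADCs (non-cleavable SMCC linker) or DM1-SMe, 500 nM–5 pM, 3 days. Viability as % untreated after digitonin background; IC50 by four-parameter logistic.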"}, "[6]": {"test_system": "MCF7 tumors", "experiment": "MCF7 breast tumor xenograft, tumor volume", "format": "in vivo, NCr nude mice", "procedure": "After MCF7 or MCF7/PRLR tumors reached an average volume of ˜150-200 mm^3 (14-16 days post implantation), mice were randomized into treatment groups (n=8-9 mice/group) and received a single dose or three once-weekly doses of H1H6958N2-DM1, control ADC, or vehicle control, administered systemically by intravenous tail-vein injection. Tumor size and body weight were measured in vivo twice per week throughout the duration of the study.\nThe T47Dv11 model was used to assess the activity of H1H6958N2-DM1 in a model with significant levels of endogenous PRLR. As parental T47D cells are poorly tumorigenic, in vivo passaging was employed to develop a variant with consistent tumorigenicity. Initially, 10×10^6 parental T47D cells were implanted subcutaneously (SC) into the left flank of female C.B.-17 SCID mice (Taconic, Hudson N.Y.). Tumors were supplemented with a 90-day release 1.7 mg estrogen pellet (Innovative Research America). Where T47D tumors were observed, they were excised and cut into 3 mm fragments and subsequently implanted into the left flank of separate female C.B.-17 SCID mice. Subsequent passaging was performed until a large tumor was disaggregated into a single cell suspension. The cells (named T47Dv11) from this tumor were then cultured in vitro and expanded. […] For efficacy studies, mice were implanted with 7.5×10^6 T47Dv11 cells into the left flank of female C.B.-17 SCID mice supplemented with a 90-day release 0.72 mg/pellet estrogen pellet. For MCF7 and MCF7/PRLR tumor xenografts, 2×10^7 MCF7/PRLR cells were implanted SC into the left mammary fat pad of female NCr nude mice (7-8 weeks old) supplemented with 90-day release 0.72 mg/pellet estrogen pellets. Tumors were measured with calipers twice a week for the duration of each study. Tumor volume was calculated using the formula TV=(length×width^2)/2."}, "[7]": {"test_system": "PRLR expressing cells", "experiment": "In vitro cell viability (cell kill) assay, several cell backgrounds", "format": "cell-based, human", "details": "PC3/hPRLR and MCF7/hPRLR cell lines", "excerpt": "PRLR-overexpressing cells, including HEK293, PC3, MCF7 and NCI-N87, were generated to assess the ability of anti-PRLR conjugated antibodies to reduce cell viability. For comparative purposes, PC3 and T47D cells with overexpressed ErbB2 were also generated, as well as an MCF7 cell line over-expressing both hPRLR and hErbB2. Briefly, Lipofectamine® 2000-mediated transfection methodology was utilized to generate HEK293 cells expressing human PRLR (HEK293/hPRLR) or human ErbB2 (HEK293/hErbB2). Lipofectamine LTX with Plus Reagent was used to generate PC3 cells expressing human PRLR (PC3/hPRLR) or human ErbB2 (PC3/hErbB2). Lentiviral-mediated transduction was utilized to generate MCF7 cells expressing human PRLR (MCF7/hPRLR), NCI-N87 cells expressing human PRLR (NCI-N87/hPRLR), T47D cells over-expressing human ErbB2 (T47D/hErbB2), and MCF7 cells expressing both human PRLR and human ErbB2 (MCF7/hPRLR/hErbB2). All lines were selected for at least two weeks in complete growth media plus appropriate selection reagents. Stably expressing populations were enriched for PRLR expression via FACS using the anti PRLR antibody Control I.\nNext, the ability of anti-PRLR-DM1 antibody-drug conjugates (i.e., anti-PRLR antibodies conjugated to DM1 via a non-cleavable linker [SMCC]) to reduce cell viability was determined using in vitro cell based assays. Cells were seeded in PDL-coated 96 well plates at 1500 to 10000 cells per well in complete growth media and allowed to grow overnight. For cell viability curves, ADCs or free DM1 (as the methyl disulfide derivative DM1-SMe) were added to the cells at final concentrations ranging from 500 nM to 5 pM and incubated for 3 days. The 293, PC3 and T47D cells were incubated with CCK8 (Dojindo, Rockville, Md.) for the final 1-3 hours and the absorbance at 450 nm (OD450) was determined on a Flexstation3 (Molecular Devices, Sunnyvale, Calif.). MCF7 cells were treated with Hoechst 33342 nuclear stain while being fixed with 4% formaldehyde. Images were acquired on the ImageXpress micro XL (Molecular Devices, Sunnyvale, Calif.) and nuclear counts were determined via Columbus image analysis software (Perkin Elmer, Shelton, Conn.). Background OD450 values (PC3, 293, and T47D) or nuclear counts (MCF7) from digitonin (40 nM) treated cells was subtracted from all wells and viability was expressed as a percentage of the untreated controls. IC50 values were determined from a four-parameter logistic equation over a 10-point response curve (GraphPad Prism)."}},
  "data": [
    {"molecule": "B1", "values": [
      {"measurement": "MCF7 cell killing in vitro", "setting": "[1]", "value": "not inhibited"},
      {"measurement": "average tumor volume", "setting": "[2]; 10 mg/kg once weekly, day 30, compared to vehicle", "value": "no significant difference in average tumor volume"},
      {"measurement": "average tumor volumes", "setting": "[2]; 20 mg/kg once weekly, day 30, compared to 20 mg/kg control ADC", "value": "moderate but significant (p<0.01) decrease"},
      {"measurement": "IC50", "setting": "[3]", "value": 1.3, "unit": "nM"},
      {"measurement": "% Kill", "setting": "[4]", "value": 81, "unit": "%"},
      {"measurement": "IC50", "setting": "[4]", "value": 110, "unit": "nM"},
      {"measurement": "% Kill", "setting": "[5]; 293, Table 11, 3 days", "value": 98, "unit": "%"},
      {"measurement": "IC50", "setting": "[5]; 293, Table 11, 3 days", "value": 75, "unit": "nM"},
      {"measurement": "% Kill", "setting": "[5]; HEK293, Table 13, + 15 nM PRL", "value": 86, "unit": "%"},
      {"measurement": "IC50", "setting": "[5]; HEK293, Table 13, + 15 nM PRL", "value": 110, "unit": "nM"},
      {"measurement": "anti-tumor activity", "setting": "[6]; repeat treatment (q7dx3), 10 and 15 mg/kg, relative to control ADC", "value": "significantly inhibited MCF7 tumor growth"},
      {"measurement": "anti-tumor activity", "setting": "[6]; single dose 15 mg/kg, relative to control ADC", "value": "significantly inhibited the growth of the MCF7 tumors"},
      {"measurement": "anti-tumor activity", "setting": "[6]; single dose of 5 or 10 mg/kg", "value": "moderate in vivo anti-tumor activity"},
      {"measurement": "cell killing, non-cleavable DM1 ADCs versus cleavable MMAE ADCs", "setting": "[7]", "value": "nearly equivalent cell killing"}
    ]}
  ]
}
